Experimental data from patent publication US20040029198A1, “Method of analyzing ataxia-telangiectasia protein” (priority 2002, published 2004).

Tests used:
[1] = Stability of ATM in isolated PBMC samples stored at different temperatures, measured by sandwich immunoassay; format: physicochemical; settings: for amount of ATM: in ng/mL (unit assumed)
Method: The following is a sandwich immunoassay which was performed to measure ATM protein in nuclear cell lysates and cell extracts from cell lines and peripheral blood mononuclear cells taken from normal individuals and A-T patients.
Wells of a 96-well flat bottom plate were incubated with two purified commercially available anti-ATM mouse monoclonal antibodies (ATM-2C1, GeneTex, Inc, San Antonio, Tex.; Ab-8, NeoMarkers, Fremont, Calif.) at 5 μg/ml in phosphate-buffered saline, pH 7.4 for 6 hours. After extensive washing and blocking of the wells for one hour with a solution of 3% bovine serum albumin in phosphate buffered saline containing 0.1% Tween-20, standard concentrations of purified ATM protein and nuclear cell lysates or cell extracts (see below) were added to the wells for an overnight incubation at room temperature.
After extensive washing, a rabbit anti-ATM antiserum at a 400× dilution was added to each of the wells and incubated for 3 hours at room temperature. The antiserum came from Novus Biologicals (NB 100-104, Littleton, Colo.). After washing and blocking, an HRP-conjugated goat anti-rabbit IgG antiserum at a 1:6000 dilution was added to each well and incubated for 3 hours at room temperature. The conjugate came from Jackson ImmunoResearch Laboratories (211-035-109, West Grove, Pa.).
The plate was then washed and Pierce ImmunoPure tetramethylbenzidine (TMB) substrate (34021, Rockford, Ill.) was added to each well. After color development, the reaction was stopped with 1M sulfuric acid and the color intensity was measured spectrophometrically at 450 nm. A concentration curve was generated based on signals generated for the purified ATM protein and concentrations of unknown samples were read off the standard curve.
Nuclear lysates were prepared from lymphoblastoid cell lines (EBV-infected) derived from A-T patients and healthy donors using commercially available extraction reagents and procedures (78833, Pierce, Rockford, Ill.). Whole cell extracts were generated from peripheral blood mononuclear cells and lymphoblastoid cell lines by subjecting known numbers of resuspended cells to ultrasonic energy at a 20 kHz frequency generated by a Fisher Sonic Dismembrator (model 550). The disrupted cell product was then added directly to wells of the microtiter plate without any additional manipulations.
(§1) It has been observed that ATM protein is unstable in whole blood. […] It is therefore preferable that ATM proteins be isolated and measured shortly after extracting the cells from a patient to obtain the most reliable data. […] Table 2 compares the amount of ATM in two such samples stored at −5° C. and −70° C.

[2] = Stability of ATM protein in whole blood; format: physicochemical; settings: FIG. 3
Method: as §1

## ATM: 370 kDa protein kinase known as "ataxia-telangiectasia, mutated" (ATM), encoded by the A-T gene
[1]; PBMCs isolated from fresh blood, stored at −70° C. for 6 weeks
  stability of ATM levels in a sample: relatively stable
[1]; stored at −5° C., week 0, 3 readings
  amount of ATM: 444 ± 22
[1]; stored at −5° C., week 1, 3 readings
  amount of ATM: 126 ± 8
[1]; stored at −5° C., week 2, 3 readings
  amount of ATM: 115 ± 14
[1]; stored at −5° C., week 3, 3 readings
  amount of ATM: 66 ± 17
[1]; stored at −5° C., week 4, 3 readings
  amount of ATM: 50 ± 10
[1]; stored at −5° C., week 6, 3 readings
  amount of ATM: 32 ± 2
[1]; stored at −70° C., week 0, 3 readings
  amount of ATM: 444 ± 22
[1]; stored at −70° C., week 1, 3 readings
  amount of ATM: 458 ± 11
[1]; stored at −70° C., week 2, 3 readings
  amount of ATM: 512 ± 63
[1]; stored at −70° C., week 3, 3 readings
  amount of ATM: 424 ± 34
[1]; stored at −70° C., week 4, 3 readings
  amount of ATM: 439 ± 79
[1]; stored at −70° C., week 6, 3 readings
  amount of ATM: 458 ± 69
[2]
  stability in whole blood: unstable
